In publication PMC5824709, “Metabolite profiling with HPLC-ICP-MS as a tool for in vivo characterization of imaging probes” (EJNMMI Radiopharmacy and Chemistry, 2018):
Where a SMILES comes first, the peptide text is derived from it. Bridges are numbered along the chain shown (N, C = ends). [ ]: non-standard residue; d: D form. The star is where a group is joined. DOTA(p-xylylenediamine) = O=C(O)CN1CCN(CC(=O)O)CCN(CC(=O)NCc2ccc(CN*)cc2)CCN(CC(=O)O)CC1; DOTA = O=C(O)CN1CCN(CC(=O)O)CCN(CC(=O)*)CCN(CC(=O)O)CC1; Tyr(3-Cl) = N[C@@H](Cc1ccc(O)c(Cl)c1)C(=O)O; Hyp = O=C(O)[C@@H]1C[C@@H](O)CN1

Experiments:
[1] = Size exclusion chromatography HPLC-ICP-MS of plasma samples to detect transchelation to plasma proteins; format: in vivo; settings: rats, i.v., SEC HPLC-ICP-MS (BioSep-SEC-s2000, TBS), compared with pure Ga-/In-transferrin standard
Method: Ga and In transferrin complexes were synthesized using a 1.3 equivalent excess of protein and purification with Zeba™ Spin Desalting Columns (ThermoFisher Scientific), to remove unchelated Ga and In. TBS buffer was prepared by mixing 150 mM NaCl, 50 mM Tris and 5 mM NaHCO3 followed by stirring over chelex overnight and subsequent filtration.
An Agilent 8800 ICP-MSMS interfaced to an Agilent 1260 HPLC was used. 20% option gas (20% O2, 80% Ar) was added to pyrolyze any carbon deposits on the cones from the HPLC mobile phase while 40% O2 was used as cell gas when conducting reverse phase analysis. HPLC method 3: C18 column (Kromasil 5 μm C18, 250 × 4.60 mm), 0.8 mL/min, mobile phase A (water, 10 mM NaOAc), mobile phase B (90% acetonitrile, 10% 10 mM NaOAc), gradient: min. 0–2: 5% B; min 12: 50% B; min 13: 95% B; min 15: 95% B; min 16: 5% B; min 18: 5% B. HPLC method 4: size exclusion chromatography (SEC) Column (Phenomenex BioSep-SEC-s2000, 300 × 7.80 mm), 1 mL/min, mobile phase TBS, isocratic, 18 min. […] Ga(DOTA) and In(DOTA) were used to determine the limit of detection and limit of quantification, and to generate a calibration curve for quantification using RP-separation. […] 100 μL of each standard was analyzed by direct injection onto the reverse phase HPLC-ICP-MS (HPLC method 3), and the integrals of each metal-FBP peak were recorded. An aliquot of each calibration standard was then digested 1:1 with nitric acid and incubated overnight at 37 °C before being analyzed for its metal concentration by ICP-MS. These metal concentrations were plotted against the previously recorded integrals to generate the metal-FBP calibration plots (Additional file 1: Figure S1). Limits of detection and quantification were calculated using an established method (MacDougall & Crummett [1980]).
Ga-FBP17, Ga-FBP18, In-FBP15, In-FBP19 (50–150 nmol, with concentrations determined by direct inject ICP-MS) in 0.6 mL sterile PBS were injected either individually or as a mixture of Ga-FBP17/In-FBP15 or Ga-FBP18/In-FBP19 into anesthetized rats via cannulated femoral vein, followed by saline flush. […]

[2] = Plasma pharmacokinetics and metabolite profiling by reverse phase HPLC-ICP-MS after i.v. injection; format: in vivo; settings: rats; for metabolic behavior in plasma over time (degradation of intact probe): i.v., plasma 5-60 min post injection, C18 HPLC-ICP-MS chromatograms; for relative amount of metabolites with time post injection: plasma, C18 HPLC-ICP-MS, Ga-FBP18: metabolite group C (shortest retention times), In-FBP19: all metabolites
Method: An Agilent 8800 ICP-MSMS interfaced to an Agilent 1260 HPLC was used. 20% option gas (20% O2, 80% Ar) was added to pyrolyze any carbon deposits on the cones from the HPLC mobile phase while 40% O2 was used as cell gas when conducting reverse phase analysis. HPLC method 3: C18 column (Kromasil 5 μm C18, 250 × 4.60 mm), 0.8 mL/min, mobile phase A (water, 10 mM NaOAc), mobile phase B (90% acetonitrile, 10% 10 mM NaOAc), gradient: min. 0–2: 5% B; min 12: 50% B; min 13: 95% B; min 15: 95% B; min 16: 5% B; min 18: 5% B. HPLC method 4: size exclusion chromatography (SEC) Column (Phenomenex BioSep-SEC-s2000, 300 × 7.80 mm), 1 mL/min, mobile phase TBS, isocratic, 18 min. The SEC column was standardized using a protein marker kit (Sigma-Aldrich, P/N: MWGF1000). Ga(DOTA) and In(DOTA) were used to determine the limit of detection and limit of quantification, and to generate a calibration curve for quantification using RP-separation. Calibration standards of Ga(DOTA) and In(DOTA) ranging from 10 nM to 1 μM were prepared by serial dilution from stocks. 100 μL of each standard was analyzed by direct injection onto the reverse phase HPLC-ICP-MS (HPLC method 3), and the integrals of each metal-FBP peak were recorded. An aliquot of each calibration standard was then digested 1:1 with nitric acid and incubated overnight at 37 °C before being analyzed for its metal concentration by ICP-MS. These metal concentrations were plotted against the previously recorded integrals to generate the metal-FBP calibration plots (Additional file 1: Figure S1). Limits of detection and quantification were calculated using an established method (MacDougall & Crummett [1980]).
Ga-FBP17, Ga-FBP18, In-FBP15, In-FBP19 (50–150 nmol, with concentrations determined by direct inject ICP-MS) in 0.6 mL sterile PBS were injected either individually or as a mixture of Ga-FBP17/In-FBP15 or Ga-FBP18/In-FBP19 into anesthetized rats via cannulated femoral vein, followed by saline flush. Blood (0.2 mL) was drawn at time points 5, 10, 15, 30 and 60 min post injection via cannulated femoral artery into heparin-containing tubes. Tubes were centrifuged at 2000 g for 10 min to separate the plasma. Plasma was diluted 1:1 with chelex-treated TBS and 100 μL of sample was injected onto the HPLC-ICP-MSMS, scanning for Ga and In at m/z = 69 and 115, respectively. Peaks were integrated and measured against a standard calibration curve.

CC[C@H](C)[C@H](NC(=O)[C@H](Cc1c[nH]c2ccccc12)NC(=O)[C@@H]1CSSC[C@H](NC(=O)[C@@H](CCC(=O)O)NC(=O)[C@H](Cc2c[nH]c3ccccc23)NC(=O)CN2CCN(CC(=O)O)CCN(CC(=O)O)CCN(CC(=O)O)CC2)C(=O)N2C[C@H](O)C[C@H]2C(=O)N[C@@H](Cc2ccc(O)c(Cl)c2)C(=O)NCC(=O)N[C@@H](CC(C)C)C(=O)N1)C(=O)N[C@@H](CCC(N)=O)C(=O)NCc1ccc(CNC(=O)CN2CCN(CC(=O)O)CCN(CC(=O)O)CCN(CC(=O)O)CC2)cc1 [In-FBP19] ({DOTA}-W[dE]C[Hyp][Tyr(3-Cl)]GLCWIQ-{DOTA(p-xylylenediamine)}; disulfide 3-8)
transchelation to transferrin / high molecular weight species in plasma [1]: did not identify In-transferrin in the plasma samples
metabolic behavior in plasma over time (degradation of intact probe) [2]: rapid metabolism
relative amount of metabolites with time post injection [2]: roughly constant with time

CC[C@H](C)[C@H](NC(=O)[C@H](Cc1c[nH]cn1)NC(=O)[C@@H]1CSSC[C@H](NC(=O)[C@H](Cc2c[nH]cn2)NC(=O)[C@H](Cc2ccccc2)NC(=O)CN2CCN(CC(=O)O)CCN(CC(=O)O)CCN(CC(=O)O)CC2)C(=O)N2C[C@H](O)C[C@H]2C(=O)N[C@@H](Cc2ccc(O)c(Cl)c2)C(=O)N[C@@H](CC(=O)O)C(=O)N[C@@H](CC(C)C)C(=O)N1)C(=O)N[C@@H](CC(C)C)C(=O)NCc1ccc(CNC(=O)CN2CCN(CC(=O)O)CCN(CC(=O)O)CCN(CC(=O)O)CC2)cc1 [Ga-FBP17] ({DOTA}-FHC[Hyp][Tyr(3-Cl)]DLCHIL-{DOTA(p-xylylenediamine)}; disulfide 3-8)
transchelation to transferrin / high molecular weight species in plasma [1]: did not observe Ga-transferrin or other high molecular weight species
half-life ([2]; rat, iv, i.v. via femoral vein, 50–150 nmol in PBS, plasma from blood drawn 5, 10, 15, 30, 60 min post injection, intact probe quantified by C18 HPLC-ICP-MS (m/z 69 Ga, 115 In), monoexponential clearance assumed, read-out: calculated half-life of the intact complex): 9 min
metabolic behavior in plasma over time (degradation of intact probe) [2]: only minimal degradation over time

CC[C@H](C)[C@H](NC(=O)[C@H](Cc1c[nH]c2ccccc12)NC(=O)[C@@H]1CSSC[C@H](NC(=O)[C@@H](CCC(=O)O)NC(=O)[C@H](Cc2c[nH]c3ccccc23)NC(=O)CN2CCN(CC(=O)O)CCN(CC(=O)O)CCN(CC(=O)O)CC2)C(=O)N2C[C@H](O)C[C@H]2C(=O)N[C@@H](Cc2ccc(O)c(Cl)c2)C(=O)NCC(=O)N[C@@H](CC(C)C)C(=O)N1)C(=O)N[C@@H](CCC(N)=O)C(=O)NCc1ccc(CNC(=O)CN2CCN(CC(=O)O)CCN(CC(=O)O)CCN(CC(=O)O)CC2)cc1 [Ga-FBP18] ({DOTA}-W[dE]C[Hyp][Tyr(3-Cl)]GLCWIQ-{DOTA(p-xylylenediamine)}; disulfide 3-8)
transchelation to transferrin / high molecular weight species in plasma [1]: identified Ga-transferrin as a metabolite
metabolic behavior in plasma over time (degradation of intact probe) [2]: rapid metabolism
relative amount of metabolites with time post injection [2]: increased with time post injection

CC[C@H](C)[C@H](NC(=O)[C@H](Cc1c[nH]cn1)NC(=O)[C@@H]1CSSC[C@H](NC(=O)[C@H](Cc2c[nH]cn2)NC(=O)[C@H](Cc2ccccc2)NC(=O)CN2CCN(CC(=O)O)CCN(CC(=O)O)CCN(CC(=O)O)CC2)C(=O)N2C[C@H](O)C[C@H]2C(=O)N[C@@H](Cc2ccc(O)c(Cl)c2)C(=O)N[C@@H](CC(=O)O)C(=O)N[C@@H](CC(C)C)C(=O)N1)C(=O)N[C@@H](CC(C)C)C(=O)NCc1ccc(CNC(=O)CN2CCN(CC(=O)O)CCN(CC(=O)O)CCN(CC(=O)O)CC2)cc1 [In-FBP15] ({DOTA}-FHC[Hyp][Tyr(3-Cl)]DLCHIL-{DOTA(p-xylylenediamine)}; disulfide 3-8)
metabolic behavior in plasma over time (degradation of intact probe) [2]: only minimal degradation over time
